{
  "source": "paper doi:10.1101/2020.12.21.423144",
  "about": "(bioRxiv, 2020)",
  "proteins": {"B1": {"name": "human adenosine A2A receptor, full-length wild type (receptor)", "chain": "MPIMGSSVYITVELAIAVLAILGNVLVCWAVWLNSNLQNVTNYFVVSLAAADIAVGVLAIPFAITISTGFCAACHGCLFIACFVLVLTQSSIFSLLAIAIDRYIAIRIPLRYNGLVTGTRAKGIIAICWVLSFAIGLTPMLGWNNCGQPKEGKNHSQGCGEGQVACLFEDVVPMNYMVYFNFFACVLVPLLLMLGVYLRIFLAARRQLKQMESQPLPGERARSTLQKEVHAAKSLAIIVGLFALCWLPLHIINCFTFFCPDCSHAPLWLMYLAIVLSHTNSVVNPFIYAYRIREFRQTFRKIIRSHVLRQQEPFKAAGTSARVLAAHGSDGEQVSLRLNGHPPGVWANGSAPHPERRPNGYALGLVSGGSAQESQGNTGLPDVELLSHELKGVCPEPPGLDDPLAQDGAGVS"}, "B2": {"name": "A2AR-FL-ERR:AAA (receptor)", "chain": "B1 chain with E355A, R356A, R357A"}, "B3": {"name": "A2AR-N359ΔC (protein)", "chain": "MPIMGSSVYITVELAIAVLAILGNVLVCWAVWLNSNLQNVTNYFVVSLAAADIAVGVLAIPFAITISTGFCAACHGCLFIACFVLVLTQSSIFSLLAIAIDRYIAIRIPLRYNGLVTGTRAKGIIAICWVLSFAIGLTPMLGWNNCGQPKEGKNHSQGCGEGQVACLFEDVVPMNYMVYFNFFACVLVPLLLMLGVYLRIFLAARRQLKQMESQPLPGERARSTLQKEVHAAKSLAIIVGLFALCWLPLHIINCFTFFCPDCSHAPLWLMYLAIVLSHTNSVVNPFIYAYRIREFRQTFRKIIRSHVLRQQEPFKAAGTSARVLAAHGSDGEQVSLRLNGHPPGVWANGSAPHPERRPN"}, "B4": {"name": "A2AR-N359ΔC with the ERR:AAA mutations (domain or fragment)", "chain": "B3 chain with E355A, R356A, R357A"}, "B5": {"name": "A2AR-P395ΔC (domain or fragment)", "chain": "MPIMGSSVYITVELAIAVLAILGNVLVCWAVWLNSNLQNVTNYFVVSLAAADIAVGVLAIPFAITISTGFCAACHGCLFIACFVLVLTQSSIFSLLAIAIDRYIAIRIPLRYNGLVTGTRAKGIIAICWVLSFAIGLTPMLGWNNCGQPKEGKNHSQGCGEGQVACLFEDVVPMNYMVYFNFFACVLVPLLLMLGVYLRIFLAARRQLKQMESQPLPGERARSTLQKEVHAAKSLAIIVGLFALCWLPLHIINCFTFFCPDCSHAPLWLMYLAIVLSHTNSVVNPFIYAYRIREFRQTFRKIIRSHVLRQQEPFKAAGTSARVLAAHGSDGEQVSLRLNGHPPGVWANGSAPHPERRPNGYALGLVSGGSAQESQGNTGLPDVELLSHELKGVCP"}, "B6": {"name": "A2AR-C394V (receptor)", "chain": "B1 chain with C394V"}, "B7": {"name": "A2AR-C394S (receptor)", "chain": "B1 chain with C394S"}, "B8": {"name": "A2AR-C394M (receptor)", "chain": "B1 chain with C394M"}, "B9": {"name": "A2AR-C394A (receptor)", "chain": "B1 chain with C394A"}, "B10": {"name": "A2AR-C394L (receptor)", "chain": "B1 chain with C394L"}, "B11": {"name": "A2AR-G344ΔC (domain or fragment)", "chain": "MPIMGSSVYITVELAIAVLAILGNVLVCWAVWLNSNLQNVTNYFVVSLAAADIAVGVLAIPFAITISTGFCAACHGCLFIACFVLVLTQSSIFSLLAIAIDRYIAIRIPLRYNGLVTGTRAKGIIAICWVLSFAIGLTPMLGWNNCGQPKEGKNHSQGCGEGQVACLFEDVVPMNYMVYFNFFACVLVPLLLMLGVYLRIFLAARRQLKQMESQPLPGERARSTLQKEVHAAKSLAIIVGLFALCWLPLHIINCFTFFCPDCSHAPLWLMYLAIVLSHTNSVVNPFIYAYRIREFRQTFRKIIRSHVLRQQEPFKAAGTSARVLAAHGSDGEQVSLRLNGHPPG"}, "B12": {"name": "A2AR-V334ΔC (domain or fragment)", "chain": "MPIMGSSVYITVELAIAVLAILGNVLVCWAVWLNSNLQNVTNYFVVSLAAADIAVGVLAIPFAITISTGFCAACHGCLFIACFVLVLTQSSIFSLLAIAIDRYIAIRIPLRYNGLVTGTRAKGIIAICWVLSFAIGLTPMLGWNNCGQPKEGKNHSQGCGEGQVACLFEDVVPMNYMVYFNFFACVLVPLLLMLGVYLRIFLAARRQLKQMESQPLPGERARSTLQKEVHAAKSLAIIVGLFALCWLPLHIINCFTFFCPDCSHAPLWLMYLAIVLSHTNSVVNPFIYAYRIREFRQTFRKIIRSHVLRQQEPFKAAGTSARVLAAHGSDGEQV"}, "B13": {"name": "A2AR-P354ΔC (domain or fragment)", "chain": "MPIMGSSVYITVELAIAVLAILGNVLVCWAVWLNSNLQNVTNYFVVSLAAADIAVGVLAIPFAITISTGFCAACHGCLFIACFVLVLTQSSIFSLLAIAIDRYIAIRIPLRYNGLVTGTRAKGIIAICWVLSFAIGLTPMLGWNNCGQPKEGKNHSQGCGEGQVACLFEDVVPMNYMVYFNFFACVLVPLLLMLGVYLRIFLAARRQLKQMESQPLPGERARSTLQKEVHAAKSLAIIVGLFALCWLPLHIINCFTFFCPDCSHAPLWLMYLAIVLSHTNSVVNPFIYAYRIREFRQTFRKIIRSHVLRQQEPFKAAGTSARVLAAHGSDGEQVSLRLNGHPPGVWANGSAPHP"}, "B14": {"name": "A2AR-G349ΔC (domain or fragment)", "chain": "MPIMGSSVYITVELAIAVLAILGNVLVCWAVWLNSNLQNVTNYFVVSLAAADIAVGVLAIPFAITISTGFCAACHGCLFIACFVLVLTQSSIFSLLAIAIDRYIAIRIPLRYNGLVTGTRAKGIIAICWVLSFAIGLTPMLGWNNCGQPKEGKNHSQGCGEGQVACLFEDVVPMNYMVYFNFFACVLVPLLLMLGVYLRIFLAARRQLKQMESQPLPGERARSTLQKEVHAAKSLAIIVGLFALCWLPLHIINCFTFFCPDCSHAPLWLMYLAIVLSHTNSVVNPFIYAYRIREFRQTFRKIIRSHVLRQQEPFKAAGTSARVLAAHGSDGEQVSLRLNGHPPGVWANG"}, "B15": {"name": "A2AR-Q372ΔC (domain or fragment)", "chain": "MPIMGSSVYITVELAIAVLAILGNVLVCWAVWLNSNLQNVTNYFVVSLAAADIAVGVLAIPFAITISTGFCAACHGCLFIACFVLVLTQSSIFSLLAIAIDRYIAIRIPLRYNGLVTGTRAKGIIAICWVLSFAIGLTPMLGWNNCGQPKEGKNHSQGCGEGQVACLFEDVVPMNYMVYFNFFACVLVPLLLMLGVYLRIFLAARRQLKQMESQPLPGERARSTLQKEVHAAKSLAIIVGLFALCWLPLHIINCFTFFCPDCSHAPLWLMYLAIVLSHTNSVVNPFIYAYRIREFRQTFRKIIRSHVLRQQEPFKAAGTSARVLAAHGSDGEQVSLRLNGHPPGVWANGSAPHPERRPNGYALGLVSGGSAQ"}},
  "note": "Changes are numbered by the printed parent chain. Numbers in names are those of the source. Entries after “also recorded” stand apart in the source; their conditions may differ.",
  "data": [
    {"biological_target": "P29274", "assay": "SEC", "values": [
      {"protein": "B1", "HMW oligomer level (relative to monomer)": "ctrl: 0.88", "total oligomer level (HMW oligomer and dimer, relative to monomer)": "ctrl: 1.37; also recorded: WT: 1.34"},
      {"protein": "B2", "HMW oligomer level (relative to monomer)": "ERR:AAA: 0.66", "total oligomer level (HMW oligomer and dimer, relative to monomer)": "ERR:AAA: 0.94"},
      {"protein": "B3", "HMW oligomer level (relative to monomer)": "ctrl: 0.68", "total oligomer level (HMW oligomer and dimer, relative to monomer)": "ctrl: 1.01"},
      {"protein": "B4", "HMW oligomer level (relative to monomer)": "ERR:AAA: 0.38", "total oligomer level (HMW oligomer and dimer, relative to monomer)": "ERR:AAA: 0.85"}
    ]},
    {"biological_target": "the molecule itself", "assay": "SEC", "units": {"dimer level (relative to monomer)": "arbitrary units"}, "values": [
      {"protein": "B5", "binding result": "binds"},
      {"protein": "B6", "binding result": "binds"},
      {"protein": "B7", "binding result": "binds"},
      {"protein": "B8", "binding result": "binds"},
      {"protein": "B9", "binding result": "binds"},
      {"protein": "B2", "dimer level (relative to monomer)": 0.29},
      {"protein": "B10", "binding result": "binds"},
      {"protein": "B11", "binding result": "binds"},
      {"protein": "B12", "binding result": "binds"},
      {"protein": "B13", "dimer level (relative to monomer)": 0.19},
      {"protein": "B14", "binding result": "binds"},
      {"protein": "B4", "dimer level (relative to monomer)": 0.48},
      {"protein": "B15", "binding result": "binds"}
    ]},
    {"biological_target": "the molecule itself", "assay": "SDS-PAGE and Western blot densitometry", "units": {"dimer level (relative to monomer), with 5 mM TCEP": "arbitrary units", "dimer level (relative to monomer), without TCEP": "arbitrary units"}, "values": [
      {"protein": "B1", "dimer level (relative to monomer), with 5 mM TCEP": 0.51, "dimer level (relative to monomer), without TCEP": 1.14}
    ]}
  ]
}
